Consider one molecule from patent US20120129768A1.

Non-standard residues stand in square brackets, D forms with d. No end group written: not given here.

This assay concerns the target Glucagon-like peptide-1 receptor (GLP1R). Kind of assay: cell-based or functional assay.

B1: HS-20003 (peptide)
peptide: H[dA]EGTFTSDVSSYLEEEAAKEFIAWLVRGGPSSGAPPPSK
modifications: not fully specified (residue 40); also: palmitoyl on alpha-amino of C-terminal Lys, chain built on its epsilon amino
Turning to B1, the EC50 (nM), cAMP-response-element luciferase reporter in HEK293 cells with GLP1R stood at 0.000719 nM and the Maximum reaction rate (%) was 87.9%.
